EP2500357A2 (Abbott Laboratories, dated 2012)

Legend:
recombinant human IL-1β [1] = target: T1, recombinant human IL-1β (human, UniProt P01584 117-269); assay: cell-based or functional assay
recombinant human IL-1α [2] = target: T2, recombinant human IL-1α (human, UniProt P01583 113-271); assay: cell-based or functional assay
T2 sequence (looked up): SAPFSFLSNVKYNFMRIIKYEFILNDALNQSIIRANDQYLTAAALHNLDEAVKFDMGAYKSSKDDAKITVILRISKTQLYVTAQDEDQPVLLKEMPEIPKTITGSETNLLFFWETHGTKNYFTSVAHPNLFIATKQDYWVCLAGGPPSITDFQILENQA

recombinant human IL-1β [3] = target: T1, recombinant human IL-1β; assay: SPR (Biacore), hIL-1β as 1st antigen
recombinant human IL-1β [4] = target: T1, recombinant human IL-1β; assay: SPR (Biacore), hIL-1β as 2nd antigen
recombinant human IL-1β [5] = target: T1, recombinant human IL-1β; assay: cell-based or functional assay; remark: listed apart in the source
recombinant human IL-1α [6] = target: T2, recombinant human IL-1α; assay: cell-based or functional assay; remark: listed apart in the source
recombinant human IL-1α [7] = target: T2, recombinant human IL-1α; assay: SPR (Biacore), hIL-1α as 2nd antigen
recombinant human IL-1α [8] = target: T2, recombinant human IL-1α; assay: SPR (Biacore), hIL-1α as 1st antigen

Potency (IC50), MRC-5 bioassay (recombinant human IL-1β [1]): 3.1 nM | Potency (IC50), MRC-5 bioassay (recombinant human IL-1α [2]): 2.3 nM | Stoichiometry hIL-1β:DVD-Ig (recombinant human IL-1β [3]): 1.5 | Stoichiometry hIL-1β:DVD-Ig (recombinant human IL-1β [4]): 1 | dual-inhibition activity, IL-8 synthesis by MRC-5 cells with both IL-1α and IL-1β present (recombinant human IL-1β [5]): 2.2 nM | dual-inhibition activity, IL-8 synthesis by MRC-5 cells with both IL-1α and IL-1β present (recombinant human IL-1α [6]): 2.2 nM | neutralizing activity against hIL-1α relative to the chimeric Abs (recombinant human IL-1α [6]): 3 fold | Stoichiometry hIL-1α:DVD-Ig (recombinant human IL-1α [7]): 1.1 | Stoichiometry hIL-1α:DVD-Ig (recombinant human IL-1α [8]): 2.3
B1: hIL-1a/bDVD1-Ig (bispecific antibody, human IgG1, kappa)
heavy: not shown
light: NIVLTQSPASLAVSLGQRATISCRASESVDSYGNSYMHWYQQKPGQPPKLLIYLASNLESGVPARFSGSGSRTDFTLTIDPVEADDAATYYCQQNNEDPFTFGSGTKLEIKRNIQMTQTTSSLSASLGDRVTISCRASQDISNCLNWYQQKPDGTVKLLIYYTSRLHSGVPSRFSGSGSGTDYSLTISNLEQEDIATYFCQQGKTLPYAFGGGTKLEINRTVAAPSVFIFPPSDEQLKSGTASVVCLLNNFYPREAKVQWKVDNALQSGNSQESVTEQDSKDSTYSLSSTLTLSKADYEKHKVYACEVTHQGLSSPVTKSFNRGEC
notes: No linker between the variable domains; also called hIL-1α/βDVD1-Ig
